# Experimental data from publication PMC12657969.
# T1: GgeAgo (Geobacillus genomosp. 3, UniProt S5Z517 1-710)
# T1 sequence: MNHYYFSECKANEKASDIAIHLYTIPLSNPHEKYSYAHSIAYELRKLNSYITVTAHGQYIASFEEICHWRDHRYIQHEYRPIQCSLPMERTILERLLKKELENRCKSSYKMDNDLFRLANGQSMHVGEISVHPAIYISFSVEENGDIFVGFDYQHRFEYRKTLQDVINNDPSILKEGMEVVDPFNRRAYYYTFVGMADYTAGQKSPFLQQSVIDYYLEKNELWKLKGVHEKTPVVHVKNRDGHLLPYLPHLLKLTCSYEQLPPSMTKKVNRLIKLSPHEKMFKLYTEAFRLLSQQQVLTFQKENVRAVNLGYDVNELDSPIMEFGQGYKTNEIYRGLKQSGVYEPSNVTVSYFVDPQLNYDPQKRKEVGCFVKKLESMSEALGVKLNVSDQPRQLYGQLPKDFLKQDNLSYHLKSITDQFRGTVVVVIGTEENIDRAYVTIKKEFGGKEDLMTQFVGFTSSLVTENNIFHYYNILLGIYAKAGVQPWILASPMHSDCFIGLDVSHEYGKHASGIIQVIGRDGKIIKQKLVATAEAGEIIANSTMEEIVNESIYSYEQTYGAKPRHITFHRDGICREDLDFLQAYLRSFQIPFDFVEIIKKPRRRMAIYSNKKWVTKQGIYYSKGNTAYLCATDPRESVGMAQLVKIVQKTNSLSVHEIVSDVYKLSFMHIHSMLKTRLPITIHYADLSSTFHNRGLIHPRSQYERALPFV
# T2: GgeAgo_DM (Geobacillus genomosp. 3, UniProt S5Z517 1-710, D502A;D571A)
# T2 sequence: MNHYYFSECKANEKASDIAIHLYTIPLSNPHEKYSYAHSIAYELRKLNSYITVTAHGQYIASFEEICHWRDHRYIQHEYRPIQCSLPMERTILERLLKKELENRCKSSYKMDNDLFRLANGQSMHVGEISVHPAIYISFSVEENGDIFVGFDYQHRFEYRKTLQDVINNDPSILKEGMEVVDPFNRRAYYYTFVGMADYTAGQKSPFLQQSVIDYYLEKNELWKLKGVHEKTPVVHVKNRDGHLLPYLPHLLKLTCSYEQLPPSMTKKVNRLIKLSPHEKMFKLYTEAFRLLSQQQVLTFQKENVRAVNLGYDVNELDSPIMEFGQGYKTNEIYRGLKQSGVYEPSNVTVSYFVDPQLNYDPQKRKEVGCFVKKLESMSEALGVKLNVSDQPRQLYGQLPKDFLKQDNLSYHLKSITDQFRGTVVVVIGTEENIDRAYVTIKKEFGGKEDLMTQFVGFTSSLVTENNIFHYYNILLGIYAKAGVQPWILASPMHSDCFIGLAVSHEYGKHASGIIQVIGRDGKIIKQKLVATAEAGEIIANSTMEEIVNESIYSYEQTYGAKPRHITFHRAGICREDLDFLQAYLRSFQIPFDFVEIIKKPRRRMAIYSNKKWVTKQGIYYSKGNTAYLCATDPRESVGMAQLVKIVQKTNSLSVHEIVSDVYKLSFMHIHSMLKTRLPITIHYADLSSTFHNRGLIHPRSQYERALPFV
# Biological target: T1, GgeAgo
# Assay: fluorescence polarization
row,Binder,Kd [nM]
1,"TGAGGTAGTAGGTTGTAT (ssDNA, 5' phosphate) [5'P-gDNA (T-gDNA iFAM)]",8.23 ± 1.47
2,"TGAGGTAGTAGGTTGTAT (ssDNA, 5' OH) [5'OH-gDNA (T-gDNA iFAM)]",11.1 ± 1.88

# Biological target: T2, GgeAgo_DM
# Assay: fluorescence polarization
row,Binder,Kd [nM]
1,"5'P-gDNA / T-tDNA target (mixed, guide 5' phosphate) DNA 1: TGAGGTAGTAGGTTGTAT DNA 2: AAACGACGGCCAGTGCCAAGCTTACTATACAACCTACTACCTCAT",8.69 ± 1.28
2,"5'OH-gDNA / T-tDNA target (mixed, guide 5' OH) DNA 1: TGAGGTAGTAGGTTGTAT DNA 2: AAACGACGGCCAGTGCCAAGCTTACTATACAACCTACTACCTCAT",20 ± 2.29
3,"5'P-gDNA / U-tRNA (RNA target) (DNA:RNA, guide 5' phosphate) DNA: TGAGGTAGTAGGTTGTAT RNA: AAACGACGGCCAGUGCCAAGCUUACUAUACAACCUACUACCUCAU",10.7 ± 1.11
4,"5'OH-gDNA / U-tRNA (RNA target) (DNA:RNA, guide 5' OH) DNA: TGAGGTAGTAGGTTGTAT RNA: AAACGACGGCCAGUGCCAAGCUUACUAUACAACCUACUACCUCAU",32.2 ± 4.9
